In patent publication US6551840B2, “Method of screening TGF-β-inhibiting substances” (Chugai Seiyaku Kabushiki Kaisha, priority 1997, dated 2003):

B1: TAB1C68: 68 amino acid residues of the carboxy terminal of the TAB1 polypeptide (pGAD-TAB1) (protein)
chain: QSPTLTLQSTNTHTQSSSSSSDGGLFRSRPAHSLPPGEDGRVEPYVDFAEFYRLWSVDHGEQSVVTAP
modifications: GAL4 activation domain fusion

Tested on: TAK1
Assay: Growth of yeast SY1984-P on plate without histidine: ability of TAB1 deletion mutants to activate TAK1
Type: cell-based
Conditions: growth of yeast SY1984-P with pNV11-HU11 on SC-His plate, 30° C.
Description: The region of TAB1 required to induce the kinase activity after binding to TAK1 was identified using TAB1 deletion mutants.
Expression vectors for the 40, 35 and 30 amino acid regions (FIG. 14) in the carboxy terminal of TAB1 were constructed as described below. Thus, genes encoding 40, 35 and 30 amino acid regions respectively in the carboxy terminal of TAB1 were amplified by the PCR method as described above, digested with restriction enzymes XhoI and EcoRI, and inserted to the GAL4 transcription activated domain expression vector pGAD10 to construct pGAD-TAB1C40, pGAD-TAB1C35 and pGAD-TAB1C30, respectively. Furthermore, expression vectors for the TAB1 deletion mutants (FIG. 14) comprising 68, 45 and 25 amino acid regions in the carboxy terminal of TAB1 used were pGAD-TAB1, pGAD-TAB1C45 and pGAD-TAB1C25.
Subsequently, it was investigated whether each TAB1 deletion mutant can induce the kinase activity of TAK1 using the method described in Japanese Unexamined Patent Publication (Kokai) 9(1997)-163990. Thus, the above TAB1 deletion mutant expression vector and TAK1 expression vector pNV11-HU11 (Yamaguchi, K. et al., Science (1995) 270, 2008-2011) were introduced into Saccharomyces cereviceae SY1984-P strain (his3Δ, stellΔ, FUS1p::HIS3, STE7^P368) to obtain deletion mutants. […] These transformants were plated onto a SC-His (glucose 20 g, agar (manufactured by DIFCO) 20 g, Yeast Nitrogen Base w/o amino acids (manufactured by DIFCO) 6.7 g, adenine 100 mg, isoleucine 30 mg, valine 150 mg, arginine 20 mg, lysine 30 mg, methionine 20 mg, phenylalanine 50 mg, threonine 200 mg, tyrosine 30 mg per liter of medium) plate containing no histidine, incubated at 30° C., and the growth of yeast transformed with each expression vector was confirmed in order to evaluate the ability of each TAB1deletion mutant to activate TAK1.

Molecule	ability to activate TAK1
TAB1C25: polypeptide comprising 25 amino acids of the carboxy terminal of TAB1 (PYVDFAEFYRLWSVDHGEQSVVTAP; left off: large carriers)	not
TAB1C30: 30 amino acid region in the carboxy terminal of TAB1 (DGRVEPYVDFAEFYRLWSVDHGEQSVVTAP; left off: large carriers)	observed
TAB1C35: 35 amino acid region in the carboxy terminal of TAB1 (LPPGEDGRVEPYVDFAEFYRLWSVDHGEQSVVTAP; left off: large carriers)	observed
TAB1C40: 40 amino acid region in the carboxy terminal of TAB1 (RPAHSLPPGEDGRVEPYVDFAEFYRLWSVDHGEQSVVTAP; left off: large carriers)	observed
TAB1C45: polypeptide comprising 45 amino acids of the carboxy terminal of TAB1 (GLFRSRPAHSLPPGEDGRVEPYVDFAEFYRLWSVDHGEQSVVTAP; left off: large carriers)	observed
B1	observed

Target: T1, TAK1 (Mus musculus, UniProt Q62073)
T1 construct: A gene encoding a full-length TAK1 was prepared by digesting yeast 2-hybrid expression plasmid pBTMHu11F; expressed in transfected cells; host or cells: Saccharomyces cerevisiae strain L40
T1 sequence (Q62073 1-579): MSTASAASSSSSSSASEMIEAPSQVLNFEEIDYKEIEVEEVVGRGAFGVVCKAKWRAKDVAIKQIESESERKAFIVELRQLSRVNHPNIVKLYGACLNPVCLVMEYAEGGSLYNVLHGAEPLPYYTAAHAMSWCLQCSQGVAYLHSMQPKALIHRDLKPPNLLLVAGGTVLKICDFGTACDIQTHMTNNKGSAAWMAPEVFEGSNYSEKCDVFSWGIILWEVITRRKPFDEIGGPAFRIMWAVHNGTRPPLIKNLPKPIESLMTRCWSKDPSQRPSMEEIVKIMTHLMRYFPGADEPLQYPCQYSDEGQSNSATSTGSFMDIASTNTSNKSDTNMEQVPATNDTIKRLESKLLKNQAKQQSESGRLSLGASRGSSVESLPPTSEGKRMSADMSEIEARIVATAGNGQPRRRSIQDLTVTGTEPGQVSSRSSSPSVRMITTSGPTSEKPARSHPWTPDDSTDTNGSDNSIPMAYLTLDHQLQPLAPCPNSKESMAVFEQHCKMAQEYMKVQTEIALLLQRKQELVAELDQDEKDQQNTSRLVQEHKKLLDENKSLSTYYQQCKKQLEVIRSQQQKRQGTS
Assay: Yeast 2-hybrid method, β-galactosidase activity: binding ability of TAB1 deletion mutants to TAK1
Type: cell-based
Conditions: yeast L40 co-transformed with TAK1 2-hybrid expression plasmid; GAL4 activation domain fusion; measured three times
Description: In order to evaluate each TAB1 deletion mutant constructed in Example 10, a yeast 2-hybrid expression vector of each TAB1 deletion mutant and a yeast 2-hybrid expression vector pBTMHu11F (Shibuya H. et al., Science (1996) 272, 1179-1182) that expresses TAK1 were co-transformed into a yeast strain L40 (Shibuya H. et al., Science (1996) 272, 1179-1182). […] each of a TAB1 deletion mutant expression vector (pGAD-TAB1C45 to pGAD-TAB1C45 in Working Example 10-1 and pGAD-TAB1C45D14 to pGAD-TAB1C45D25 in Working Example 10-2) or pGAD-TAB1 (Shibuya H. et al., Science (1996) 272, 1179-1182) as a control and pBTMHu11F were introduced into the L40 strain according to the instructions (MATCHMAKER™ Two-Hybrid System, manufactured by CLONTECH), and were incubated on a selection agar medium SD-ULW (glucose 20 g, agar (manufactured by DIFCO) 20 g, Yeast Nitrogen Base w/o amino acids (manufactured by DIFCO) 6.7 g, adenine 100 mg, isoleucine 30 mg, valine 150 mg, arginine 20 mg, lysine 30 mg, methionine 20 mg, phenylalanine 50 mg, threonine 200 mg, tyrosine 30 mg, histidine 100 mg-per liter of medium) at 30° C. for 3 days to obtain each transformant.
In order to evaluate the binding ability to TAK1 of each TAB1 deletion mutant constructed in Example 10, activity was determined by the yeast 2-hybrid method. Since a reporter gene lacZ having the LexA binding sequence upstream thereof has been integrated on the chromosome of the yeast strain L40, the binding ability to TAK1 of each TAB1 deletion mutant can be evaluated in relative terms by measuring the activity of β-galactosidase that is a reporter gene product.
(§1) The β-galactosidase activity of each transformant obtained in Example 11 was determined according to the instructions (MATCHMAKER™ Two-Hybrid System, manufactured by CLONTECH), and the activity was calculated using Miller Unit (Miller, J. H. (1972) Experiments in Molecular Genetics, Cold Spring Harbor Laboratory, Cold Spring Harbor, N.Y.).
In FIG. 11, the β-galactosidase activity of each TAB1 deletion mutant and the yeast L40 transformed by the yeast 2-hybrid expression plasmid of TAK1 was expressed in terms of Miller Units. Measurement was carried out three times and the mean+/−SD is shown. The value indicates a ratio based on the β-galactosidase activity of the yeast L40 transformed by TAB1C68 and the yeast 2-hybrid expression plasmid of TAK1.
as §1, with “Units” for “Unit”
In FIG. 12, the β-galactosidase activity of the yeast L40 transformed by each TAB1 deletion mutant and the yeast 2-hybrid expression plasmid of TAK1 was expressed in terms of Miller Units. Measurement was carried out three times and the mean+/−SD is shown. The value indicates a ratio based on the β-galactosidase activity of the yeast L40 transformed by the TAB1C68 and yeast 2-hybrid expression plasmid of TAK1.
First, binding between the 68, 45, 40, 35, 30 and 25 amino acid regions of the carboxy terminal of TAB1 and TAK1 was evaluated by the yeast 2-hybrid method mentioned above.

Molecule	specific activity: β-galactosidase activity as ratio to TAB1C68
TAB1C20: polypeptide comprising 20 amino acids of the carboxy terminal of TAB1 (AEFYRLWSVDHGEQSVVTAP; left off: large carriers)	0.03
TAB1C21: polypeptide comprising 21 amino acids of the carboxy terminal of TAB1 (FAEFYRLWSVDHGEQSVVTAP; left off: large carriers)	0.03
TAB1C22: polypeptide comprising 22 amino acids of the carboxy terminal of TAB1 (DFAEFYRLWSVDHGEQSVVTAP; left off: large carriers)	0.03
TAB1C23: polypeptide comprising 23 amino acids of the carboxy terminal of TAB1 (VDFAEFYRLWSVDHGEQSVVTAP; left off: large carriers)	0.05
TAB1C24: polypeptide comprising 24 amino acids of the carboxy terminal of TAB1 (YVDFAEFYRLWSVDHGEQSVVTAP; left off: large carriers)	0.35
TAB1C45 Δ19: lacks 19 amino acids from the carboxy terminal of the 45 amino acid carboxy terminal portion of TAB1 (GLFRSRPAHSLPPGEDGRVEPYVDFA; UniProt Q15750 460-485, looked up, fragment)	0.13
TAB1C45 Δ20: lacks 20 amino acids from the carboxy terminal of the 45 amino acid carboxy terminal portion of TAB1 (GLFRSRPAHSLPPGEDGRVEPYVDF; UniProt Q15750 460-484, looked up, fragment)	0.11
TAB1C45 Δ21: lacks 21 amino acids from the carboxy terminal of the 45 amino acid carboxy terminal portion of TAB1 (GLFRSRPAHSLPPGEDGRVEPYVD; UniProt Q15750 460-483, looked up, fragment)	0.01
TAB1C45 Δ22: lacks 22 amino acids from the carboxy terminal of the 45 amino acid carboxy terminal portion of TAB1 (GLFRSRPAHSLPPGEDGRVEPYV; UniProt Q15750 460-482, looked up, fragment)	0.02
TAB1C45 Δ23: lacks 23 amino acids from the carboxy terminal of the 45 amino acid carboxy terminal portion of TAB1 (GLFRSRPAHSLPPGEDGRVEPY; UniProt Q15750 460-481, looked up, fragment)	0.00
TAB1C45 Δ24: lacks 24 amino acids from the carboxy terminal of the 45 amino acid carboxy terminal portion of TAB1 (GLFRSRPAHSLPPGEDGRVEP; UniProt Q15750 460-480, looked up, fragment)	0.02
TAB1C45 Δ25: lacks 25 amino acids from the carboxy terminal of the 45 amino acid carboxy terminal portion of TAB1 (GLFRSRPAHSLPPGEDGRVE; UniProt Q15750 460-479, looked up, fragment)	0.01
